T1: human formyl peptide receptor like-1 (FPRL-1) receptor (human, UniProt P25090 1-351)
T1 sequence (looked up): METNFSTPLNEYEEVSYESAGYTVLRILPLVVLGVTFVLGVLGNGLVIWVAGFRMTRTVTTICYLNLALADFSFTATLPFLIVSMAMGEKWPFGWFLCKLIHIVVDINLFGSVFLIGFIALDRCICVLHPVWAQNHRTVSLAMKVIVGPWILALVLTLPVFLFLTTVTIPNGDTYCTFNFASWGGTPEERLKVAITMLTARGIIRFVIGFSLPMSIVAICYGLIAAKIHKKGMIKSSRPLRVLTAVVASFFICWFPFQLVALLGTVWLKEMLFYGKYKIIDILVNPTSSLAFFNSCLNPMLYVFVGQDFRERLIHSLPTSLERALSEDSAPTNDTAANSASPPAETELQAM


Columns and labels:
C5a receptor (human) = C5a receptor (human) (UniProt P21730); test: cell-based or functional assay
[1] = target: T1, human formyl peptide receptor like-1 …; test: cell-based or functional assay

Chain of C5a receptor (human) (P21730 whole entry): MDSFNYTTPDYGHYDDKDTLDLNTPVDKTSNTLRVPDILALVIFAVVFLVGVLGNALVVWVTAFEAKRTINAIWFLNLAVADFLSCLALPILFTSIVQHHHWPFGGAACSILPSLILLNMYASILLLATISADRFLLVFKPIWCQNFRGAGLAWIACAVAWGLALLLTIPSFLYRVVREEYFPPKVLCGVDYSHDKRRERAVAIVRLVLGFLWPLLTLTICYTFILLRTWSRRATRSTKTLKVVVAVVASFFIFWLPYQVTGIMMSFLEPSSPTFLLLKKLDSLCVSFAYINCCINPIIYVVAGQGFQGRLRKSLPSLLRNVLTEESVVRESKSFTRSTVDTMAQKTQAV

fold increase in lacZ expression (fus1:lacZ, autocrine yeast) (C5a receptor (human))	fold stimulation of β-galactosidase (fus1-lacZ) over background [1]	Molecule
8 to 12 fold		native C5a ligand (from UniProt P01031 678-751)
	8 fold	SLLWLTCRPWEAM [peptide A5, Ser-Leu-Leu-Trp-Leu-Thr-Cys-Arg-Pro-Trp-Glu-Ala-Met]
